Measured values as given in publication PMC11677658.

Target: Aspergillus sydowii UBOCC-A-108050 SULT (Aspergillus sydowii UBOCC-A-108050)
Test: SEC; calibrated size exclusion chromatography of the purified recombinant protein alone (self-association)

Substance: Aspergillus sydowii UBOCC-A-108050 SULT (enzyme)
- stoichiometry N: 2
